Test results: patent US20210130477A1

What was measured:
[1] = biological target: human FGFR1c and human KLB co-expressed on HEK293 cells (human) (UniProt P11362); assay: cell-based or functional assay
hKLB.HA.6×His (human) = hKLB.HA.6×His (human) (UniProt Q86Z14); assay: SPR (Biacore), antibody captured on anti-human Fc (REGN2567) CM5 chip, hKLB.HA.6xHis injected, 25 C, 1:1 fit
hFGFR1c_V5_6×His (human) = hFGFR1c_V5_6×His (human) (UniProt P11362); assay: SPR (Biacore), antibody captured on anti-human Fc (REGN2567) CM5 chip, hFGFR1c_V5_6xHis injected, 25 C, 1:1 fit
hCD63.mmh (human) = hCD63.mmh (human) (UniProt P08962); assay: SPR (Biacore) kinetics, mAb captured, hCD63.mmh as analyte
hAPLP2.mmh (human) = hAPLP2.mmh (human) (UniProt Q06481); assay: SPR (Biacore) kinetics, mAb captured, hAPLP2.mmh as analyte
hFGFR3b.mmh (human) = hFGFR3b.mmh (human) (UniProt P22607); assay: SPR (Biacore) kinetics, mAb captured, hFGFR3b.mmh as analyte

Sequence of UniProt P11362 (P11362 22-376): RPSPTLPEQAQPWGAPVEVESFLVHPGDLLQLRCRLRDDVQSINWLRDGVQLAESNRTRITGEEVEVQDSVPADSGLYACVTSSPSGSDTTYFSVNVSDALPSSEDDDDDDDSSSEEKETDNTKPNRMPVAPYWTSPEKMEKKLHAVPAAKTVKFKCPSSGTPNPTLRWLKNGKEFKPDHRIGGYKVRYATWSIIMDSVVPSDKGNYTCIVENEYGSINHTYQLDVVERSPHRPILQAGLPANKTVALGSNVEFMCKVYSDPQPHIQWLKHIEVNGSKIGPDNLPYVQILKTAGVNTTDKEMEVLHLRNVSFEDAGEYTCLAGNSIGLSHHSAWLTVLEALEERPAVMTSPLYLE

A % activation normalized against soluble FGF21, SRE-luciferase reporter [1] of 19%, an agonist activity relative to hFGF21, SRE-luciferase reporter [1] of 30% and a 100 nM Antigen Bound (RU) (hKLB.HA.6×His (human)) of 411 RU were found for REGN4366 (bispecific antibody) in this work. The Kd (hKLB.HA.6×His (human)) was 0.0255 µM, the koff (hKLB.HA.6×His (human)) was 0.0122 s⁻¹ and the kon (hKLB.HA.6×His (human)) was 476000 M⁻¹ s⁻¹. The 100 nM Antigen Bound (RU) (hFGFR1c_V5_6×His (human)) was 50 RU, the Kd (hFGFR1c_V5_6×His (human)) was 0.539 µM and the koff (hFGFR1c_V5_6×His (human)) was 0.0247 s⁻¹. For the same substance, the kon (hFGFR1c_V5_6×His (human)) was 45900 M⁻¹ s⁻¹.

A % Act, SRE-luciferase reporter [1] of 100%, a % Activity of (FGF21), SRE-luciferase reporter [1] of 100% and an EC50 (M), SRE-luciferase reporter [1] of 3.4e-09 M were found for “Recombinant human FGF21 with 6×His tag (from UniProt Q9NSA1 29-209) (ligand)” in this work.

A 100 nM Antigen Bound (RU) (hCD63.mmh (human)) of 0.5 RU, a 100 nM Antigen Bound (RU) (hAPLP2.mmh (human)) of -0.5 RU and a 100 nM Antigen Bound (RU) (hFGFR3b.mmh (human)) of 1.8 RU were found for REGN1945 (antibody) in this work.

A % Act, SRE-luciferase reporter [1] of 42% and an agonist activity relative to hFGF21, SRE-luciferase reporter [1] of 30% were found for REGN4304 (bispecific antibody) in this work.
